The Kd is the free concentration of one partner at which half of the binding sites on the other are occupied at equilibrium, for simple one-to-one binding. Read a high Kd as a looser complex. In general, koff refers to the first-order rate constant of dissociation. A low value points to a long-lived complex. As a reminder, the kon is a measure of how fast the partners come together. High values mean faster complex formation, low ones slower complex formation.

In one test the target is T1, RhCD137-muFc (rhesus monkey; mouse).
T1 construct: Residues 1-186 as stated; no signal peptide cleavage site is stated; also called Rhesus monkey CD137; CD137 of rhesus monkey
T1 chain: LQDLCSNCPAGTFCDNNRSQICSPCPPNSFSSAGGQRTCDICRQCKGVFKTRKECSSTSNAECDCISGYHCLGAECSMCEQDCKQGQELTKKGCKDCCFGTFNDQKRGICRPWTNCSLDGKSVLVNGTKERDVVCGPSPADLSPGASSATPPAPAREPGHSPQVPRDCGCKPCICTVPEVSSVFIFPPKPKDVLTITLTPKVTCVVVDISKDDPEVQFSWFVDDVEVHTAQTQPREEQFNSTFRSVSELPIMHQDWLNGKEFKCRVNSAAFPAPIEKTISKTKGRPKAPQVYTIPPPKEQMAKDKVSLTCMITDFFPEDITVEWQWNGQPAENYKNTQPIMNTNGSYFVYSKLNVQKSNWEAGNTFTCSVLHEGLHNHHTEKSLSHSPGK
The experiment in a line: ELISA, RhCD137-muFc coated at 5 ug/mL, antibody titrated 3-fold, goat anti-hIgG-HRP, OD450-650. As to the method:
RhCD137-muFc was diluted to 5 μg/mL 100 μL/well, with coating buffer (50 mM Na₂CO₃, NaHCO₃ pH 9.6), overnight at 4° C. After washing, the plates were blocked with 3% BSA-PBS for 1 h at 37° C. Anti-hCD137 14#mAbnew antibodies were respectively diluted from 2000 ng/mL and were diluted 3-fold, with the diluent (1% BSA-PBS) as a control, and incubated for 2 h at 37° C. Goat anti-hIgG-HRP conjugated was added and incubated for 1 h at 37° C. The soluble one-component TMB substrate developing solution was added, and the developing was performed in dark at room temperature for 5-10 min. 2N H₂SO₄ 50 μL/well was added to terminate the color development reaction. The OD_{450 nm-650 nm} values were read on MD Spectra Max Plus 384 microplate reader, and SoftMax Pro v5.4 was used for data processing and diagraph analysis, with the results shown in FIG. 8, in which it can be seen that anti-hCD137 14#mAb new may bind to CD137 of rhesus monkey.
(In general: An ELISA detects its analyte on a solid surface through an enzyme-linked reagent.)

The target in test [1] is T2, hCD137-muFc (human; mouse, UniProt Q07011 24-186).
T2 construct: range 1-186; It states no cleavage site; Made in HEK293 and purified on protein A; also called recombinant human CD137; not shown: mouse IgG1-Fc (muFc) domain, residues 98-324 of UniProt P01868
The experiment in a line: SPR, BIAcore X100; anti-hFc on a CM5 chip, CD137-muFc as analyte 100-3.16 nM; 1:1 Langmuir model. As to the method: (§1) The binding kinetics of anti-hCD137 antibody against the recombinant human CD137 were measured by surface plasmon resonance (SPR) process using a BIAcore X100 instrument. Anti-hFc antibody (not cross-identifying mouse Fc) was conjugated on CM5 chip, CD137-muFc was diluted to 5 nM with running buffer and captured as a ligand by the antibody on the chip. CD137-muFc was diluted with running buffer to 1000-31.6 nM (C14Mab) or 100-3.16 nM (C14 Mab new), diluted twice to a total of 6 concentrations. The injection time was 180 s, the dissociation time was 1800 s and the regeneration time was 60 s. The running buffer was HBS-EP+, and the regeneration buffer was 10 mM glycine-HCl (pH 2.0). The association rate (Kₒₙ) and the dissociation rate (Koff) were calculated using a simple one-to-one Languir binding model (BIAcore Evaluation Software version 3.2). The equilibrium dissociation constant (KD) was calculated as the ratio of Koff/Kₒₙ.

In test [2] the target is T3, hCD27-EGFP on HEK293 cells (human, UniProt P26842 20-260).
T3 construct: EGFP fusion on transfected HEK293 cells; not shown: enhanced green fluorescent protein (EGFP), UniProt C5MKY7
T3 sequence (looked up): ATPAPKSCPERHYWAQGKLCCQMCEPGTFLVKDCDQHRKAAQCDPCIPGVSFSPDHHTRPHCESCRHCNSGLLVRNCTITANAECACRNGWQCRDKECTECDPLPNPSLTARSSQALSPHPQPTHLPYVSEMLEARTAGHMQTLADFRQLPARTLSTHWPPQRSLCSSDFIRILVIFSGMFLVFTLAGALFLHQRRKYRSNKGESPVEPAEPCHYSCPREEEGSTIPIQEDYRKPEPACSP
As to the kind of experiment: flow cytometry on transfected HEK293 cells, anti-hIg-PE. As to the method: (§2) HEK293 cells expressing hCD137-EGFP, hOX40-EGFP, hCD27-EGFP and hGITR-EGFP constructed in Example 1 were resuspended in 0.5% PBS-BSA Buffer and anti-hCD137 C2scFv and C14 scFv protein were added, the negative control was hIgG Fe protein, then the mixture was incubated on ice for 20 min. After washing, secondary antibody anti-hIg-PE (eBioscience) was added and was incubated on ice for 20 min. After washing, the cells were resuspended in 500 μL of 0.5% PBS-BSA Buffer and detected by flow cytometry.
(§3) HEK293 cells expressing hCD137-EGFP, hOX40-EGFP, hCD27-EGFP and hGITR-EGFP constructed in Example 1 were resuspended in 0.5% PBS-BSA Buffer and anti-hCD137 C14 mAb protein was added, the negative control was hIgG Fc protein, then the mixture was incubated on ice for 20 min. After washing, a secondary antibody anti-hlg-PE (eBioscience) was added and incubated on ice for 20 min. After washing, the cells were resuspended in 500 μL 0.5% PBS-BSA Buffer and detected by flow cytometry.
Background: A flow cytometer gives signals particle by particle.

Test [3] has as its target T4, hOX40-EGFP on HEK293 cells (human, UniProt P43489 29-277).
T4 construct: EGFP fusion on transfected HEK293 cells; not shown: enhanced green fluorescent protein (EGFP), UniProt C5MKY7
T4 sequence (looked up): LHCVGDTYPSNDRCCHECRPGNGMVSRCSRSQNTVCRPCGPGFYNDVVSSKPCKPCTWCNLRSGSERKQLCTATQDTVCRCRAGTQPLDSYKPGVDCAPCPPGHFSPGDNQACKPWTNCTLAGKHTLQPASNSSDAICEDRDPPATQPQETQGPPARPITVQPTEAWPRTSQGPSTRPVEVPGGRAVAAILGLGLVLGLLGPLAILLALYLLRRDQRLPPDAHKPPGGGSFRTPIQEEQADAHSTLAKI
The description is as above. Here is the method: as §2, §3

Test [4] concerns the target T5, hGITR-EGFP on HEK293 cells (human, UniProt Q9Y5U5 26-241).
T5 construct: EGFP fusion on transfected HEK293 cells; not shown: enhanced green fluorescent protein (EGFP), UniProt C5MKY7
T5 sequence (looked up): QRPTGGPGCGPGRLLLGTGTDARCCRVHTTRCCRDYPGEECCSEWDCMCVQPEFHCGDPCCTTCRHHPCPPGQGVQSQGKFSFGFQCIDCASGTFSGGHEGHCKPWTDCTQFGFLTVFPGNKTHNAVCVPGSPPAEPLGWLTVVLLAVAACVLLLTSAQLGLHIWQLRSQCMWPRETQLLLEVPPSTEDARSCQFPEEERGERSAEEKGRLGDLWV
The description is as above. Here is the method:
as §2, §3

Test [5] deals with T2, hCD137-muFc. As to the kind of experiment: SPR, BIAcore X100; scFv captured by anti-hFc on a CM5 chip, CD137-muFc as analyte 1000-31.6 nM; 1:1 Langmuir model. Here is the method: as §1, with “anti-hCD137 C2scFv and C14 scFv antibodies” for “anti-hCD137 antibody”, “chip, C2 scFv or C14 scFv” for “chip, CD137-muFc”, “1000-31.6 nM,” for “1000-31.6 nM (C14Mab) or 100-3.16 nM (C14 Mab new),”
In general terms: SPR reads the build-up and loss of mass on a sensor chip optically.

B1: anti-CD137 14#mAb new (antibody, V domains shown)
VH: QVQLQQSGPGLVKPSQTLSLTCAISGDSVSSNSAAWNWIRQSPSRGLEWLGRTYYRSKWYNDYAPSVESRITINPDTSKNQFSLQLSSVTPEDTAVYYCARDPPYVLSTFDIWGQGTMVTVSS
VL: NFMLTQPPSVSESPGKTVTISCTRSSGNIASFYVQWFQQRPGSSPTTVIYDDDQRPSGVPDRFSGSIDRSSNSASLTISGLTTDDEADYYCQSYDINKVIFGGGTKLTVL
notes: L50 E to D, L93 T to I and L95 N to K against C14; IgG4 / lambda; also called C14 mAbnew; C14 Mab new; not shown: human IgG4 constant region, UniProt P01861 (same method as C14mAb); human lambda light chain constant region, UniProt A0M8Q6 (same method as C14mAb)
With B1, in the test with RhCD137-muFc, the binding result was “binds”. Besides, in the test with hCD137-muFc [1], the affinity, expressed as Kd, was 2.68 nM; the koff was 0.000907 s⁻¹; the kon was determined as 338000 M⁻¹ s⁻¹.

B2: anti-hCD137 C14 mAb (antibody, human IgG4, V domains shown)
VH: QVQLQQSGPGLVKPSQTLSLTCAISGDSVSSNSAAWNWIRQSPSRGLEWLGRTYYRSKWYNDYAPSVESRITINPDTSKNQFSLQLSSVTPEDTAVYYCARDPPYVLSTFDIWGQGTMVTVSS
VL: NFMLTQPPSVSESPGKTVTISCTRSSGNIASFYVQWFQQRPGSSPTTVIYEDDQRPSGVPDRFSGSIDRSSNSASLTISGLTTDDEADYYCQSYDTNNVIFGGGTKLTVL
notes: domain: constant region; Human IgG4 / lambda antibody made in HEK293; also called anti-CD137 14#mAb; not shown: human immunoglobulin lambda light chain constant region, UniProt A0M8Q6
B2: the binding result in test [2], in test [3] and in test [4] was “no binding” each time.

B3: anti-hCD137 C14 scFv (scFv)
scFv: QVQLQQSGPGLVKPSQTLSLTCAISGDSVSSNSAAWNWIRQSPSRGLEWLGRTYYRSKWYNDYAPSVESRITINPDTSKNQFSLQLSSVTPEDTAVYYCARDPPYVLSTFDIWGQGTMVTVSSGGGGSGGGGSGGGGSNFMLTQPPSVSESPGKTVTISCTRSSGNIASFYVQWFQQRPGSSPTTVIYEDDQRPSGVPDRFSGSIDRSSNSASLTISGLTTDDEADYYCQSYDTNNVIFGGGTKLTVL
notes: The junction between scFv and Fc is not described; also called anti-CD137 14#ScFv; not shown: human IgG1-Fc domain, residues 104-330 of UniProt P01857
Take B3: in the test with hCD137-muFc [5], binding was characterised by a dissociation constant (Kd) of 23.8 nM, the koff was found to be 0.000263 s⁻¹ and the kon amounted to 11200 M⁻¹ s⁻¹. The binding result in test [2] is on record as “no binding”. Also, the binding result in test [3] is given as “no binding”. Also, the binding result in test [4] was “no binding”.

B4: anti-hCD137 C2 scFv (scFv)
scFv: EVQLVESGGGLVQPGGSLRLSCAASGFTVSDYYMNWIRQAPGKGLEWVSYISSSASGSTIYYADSVKGRFTISRDNANNSLYLHMDSLRAEDTAIYFCARVVPAGSGWRWFDPWGQGTLVTVSSGGGGSGGGGSGGGGSQSVLIQPPSASGSPGQSVTISCTGISSDVGAYDYVSWYQQHPGKVPKLMIYEVSKRPSGVPDRFSGSKSGDTASLTVSGLQAEDEADYYCSSHAGSNNFYVFGTGTKLTVL
notes: The junction between scFv and Fc is not described; not shown: human IgG1-Fc domain, residues 104-330 of UniProt P01857
Regarding B4, in the test with hCD137-muFc [5], binding was put at a Kd of 11.6 nM, the koff was 0.000128 s⁻¹ and the kon came to 11000 M⁻¹ s⁻¹. The binding result in test [2] is listed as “no binding”. Besides, in test [3], the binding result is “no binding”. The binding result in test [4] is “no binding”.

(Values after patent US20180282422A1 (DINGFU BIOTARGET, published 2018).)
